In patent US7164008B2, “Isolated complexes of endotoxin and MD-2” (priority 2003, dated 2007):

Experiments:
human airway epithelia [1] = assay: MD-2 mRNA expression in human airway epithelia after stimuli (real time PCR); type: cell-based; settings: 18–24 hr stimulation
Protocol: Fold increase in MD-2 mRNA expression was quantified using real time PCR. FIG. 10 represents the results from three independent experiments on three different epithelial preparations. * indicates p<0.05.
Real-time PCR was employed to detect human β-defensin-2 and MD-2 and to quantify changes in expression. Real-time quantitative PCR was performed using a sequence detector (ABI PRISM 7700, Applied Biosystems, Foster City, Calif.) and Taqman technology (Roche Molecular Diagnostic Systems) following the manufacturer's protocols (Bustin, 2000). The primers and probes were designed using the Primer Express program (Applied Biosystems). For MD-2, the primers were-forward5′-[…]-3′ (SEQ ID NO:11), reverse 5′-GCATTTCTTCTGGGCTCCC-3′ (SEQ ID NO:12), and probe 5′-[…]-3′ (SEQ ID NO:13). For HBD-2, the forward primer was-5′-[…]-3′ (SEQ ID NO:14), the reverse primer-5′-[…]-3′ (SEQ ID NO:15), and the probe was-5′-[…]-3′ (SEQ ID NO:16). Both probes contain a fluorescent reporter (6-Carboxyfluorescein [FAM]) at the 5′ end and a fluorescent quencher (6-Carboxytetramethylrhodamine [TAMRA]) at the 3′ end. As an internal control for normalization, human GAPDH real-time quantitative PCR was conducted in every reaction. The primers and probes were purchased from Roche Molecular Diagnostic Systems. The PCR fragments were amplified for 40 cycles (15 sec at 95° C. and 1 min at 60° C.). […]

human airway epithelia [2] = assay: Endotoxin responsiveness of primary human airway epithelia (HBD-2 mRNA real time PCR, NF-κB-luciferase); type: cell-based; settings: IL-1β 100 ng/ml, 24 hr, real time PCR
Protocol: FIG. 6 depicts endotoxin responsiveness of well-differentiated primary cultures of human airway epithelia. Polarized epithelia were treated with NTHi LOS (100 ng/ml), sCD14 (100 ng/ml) and LBP (250 ng/ml) by apical application in a 50 μl volume. Twenty-four hours later, epithelia were harvested and analyzed for HBD-2 mRNA expression by real time PCR. As depicted in FIG. 6A, apical stimulation of airway epithelia with NTHi LOS induced little change in HBD-2 MRNA expression (2 epithelia/trial, n=3 different donors, * indicates p<0.05). In contrast, IL-1β markedly induces HBD-2 mRNA. FIG. 6B depicts the polarity of epithelial responses to IL-1β and NTHi LOS. […]
FIG. 9 depicts the effects of MD-2 complementation on endotoxin responsiveness in human airway epithelia. […] Fold increase in HBD-2 mRNA expression were quantified by real time PCR. […] NF-κB-luciferase activity was measured 24 hr following endotoxin treatment (n=5 epithelia/condition, * indicates p<0.05). […] 24 hr after endotoxin treatment, HBD-2 expression was quantified by real time PCR. […]
Well differentiated human airway epithelia were treated with N. meningitidis LOS-sCD14 (5 ng LOS/ml), with or without the addition of cell culture supernatants containing rMD-2. […] HBD-2 expression was quantified by real time PCR. […]
Real-time PCR was employed to detect human β-defensin-2 and MD-2 and to quantify changes in expression. […]

MD-2 = assay: Formation of [^14C]-LOS-MD-2 complex monitored by gel filtration chromatography; type: binding, human; settings: 30 min, 37° C., Sephacryl S100
Protocol: In FIG. 2, a bioactive complex (Mr˜25,000) containing MD-2 and [^14C]-LOS is formed by incubation of [^14C]-LOS-sCD14 with wt, but not C95Y, MD-2. In FIG. 2A, dialyzed control insect cell medium (◯) or medium containing wt (♦) or C95Y ( ? ) MD-2 was incubated for 30 min, 37° C. with (1:1 vol/vol) [^14C]-LOS-sCD14 in HBSS+, 10 mM HEPES and chromatographed on Sephacryl S100. Column fractions were analyzed for [^14C]-LOS. Identical results were obtained in analytical (5 ng [^14C]-LOS/ml+200 μl culture medium) or more preparative runs (reagents concentrated 20×). […] Cell activation was measured by IL-8 accumulation. […]
(§1) Purified [^14C]-LOSagg or [^14C]-LOS-sCD14 (3 ng LOS/ml)+/−indicated proteins (30 ng/ml LBP, 250 ng/ml sCD14, 60 μl culture medium) were incubated at 37° C. for 30 min. After this incubation, samples were analyzed by gel filtration chromatography to monitor formation of [^14C]-LOS-MD-2 and by incubation with HEK/TLR4 cells to measure cell activation.
Columns of Sephacryl HR S200 (1.6 cm×30 cm) or S100 (1.0 cm×60 cm) were pre-equilibrated in 10 mM HEPES, HBSS^++/−0.1% HSA. […] Aliquots of the collected fractions were analyzed by liquid scintillation spectroscopy using a Beckman LS liquid scintillation counter to detect [^14C]-LOS. […]

TLR4 = biological target: T1, TLR4 (Homo sapiens, UniProt O00206+Q9Y6Y9); assay: HEK cell activation assay: extracellular IL-8 by ELISA; type: cell-based
T1 construct: host or cells: HEK293 stably transfected with TLR4 (HEK/TLR4)
T1 sequence (O00206 24-839): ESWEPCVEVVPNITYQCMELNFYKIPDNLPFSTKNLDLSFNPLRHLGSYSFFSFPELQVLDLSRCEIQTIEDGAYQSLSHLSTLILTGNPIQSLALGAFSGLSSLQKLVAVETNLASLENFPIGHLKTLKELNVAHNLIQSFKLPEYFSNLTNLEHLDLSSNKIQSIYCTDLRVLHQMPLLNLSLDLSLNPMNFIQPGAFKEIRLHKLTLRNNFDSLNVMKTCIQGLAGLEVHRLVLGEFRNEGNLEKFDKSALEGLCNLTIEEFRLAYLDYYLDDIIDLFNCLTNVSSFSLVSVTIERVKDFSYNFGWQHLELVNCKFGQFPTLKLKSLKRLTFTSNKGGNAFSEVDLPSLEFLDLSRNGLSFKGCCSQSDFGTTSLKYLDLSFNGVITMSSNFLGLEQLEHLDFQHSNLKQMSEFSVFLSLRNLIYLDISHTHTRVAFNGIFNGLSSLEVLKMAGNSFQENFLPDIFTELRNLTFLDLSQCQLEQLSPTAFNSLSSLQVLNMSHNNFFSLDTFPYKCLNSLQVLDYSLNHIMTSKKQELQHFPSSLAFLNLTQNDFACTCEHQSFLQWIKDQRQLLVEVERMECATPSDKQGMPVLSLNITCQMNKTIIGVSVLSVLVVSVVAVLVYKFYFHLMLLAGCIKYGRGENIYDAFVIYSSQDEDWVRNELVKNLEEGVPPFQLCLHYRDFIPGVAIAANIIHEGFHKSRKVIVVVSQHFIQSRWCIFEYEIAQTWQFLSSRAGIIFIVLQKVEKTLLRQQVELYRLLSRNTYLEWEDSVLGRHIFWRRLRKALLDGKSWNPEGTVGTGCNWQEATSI
T1 sequence (Q9Y6Y9 19-160): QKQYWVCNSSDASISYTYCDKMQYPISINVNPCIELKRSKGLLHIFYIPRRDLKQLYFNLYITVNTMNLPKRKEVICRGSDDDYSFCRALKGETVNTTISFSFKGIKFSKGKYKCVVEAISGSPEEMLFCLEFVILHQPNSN
Description: Conditioned insect cell culture medium containing soluble, polyhistidine-tagged recombinant wild-type (wt) or C95Y mutant MD-2 were generated according to the method of Viriyakosol et al. (2001). A human embryonic kidney cell line (HEK293) that stably expresses TLR4 (HEK/TLR4), but lacks both CD14 and MD-2 (Yang et al., 2000), was used to evaluate the effect of MD-2 on the ability of lipooligosaccharide (LOS) to interact with TLR4 and promote activation.
FIG. 1 depicts the expression and bioactivity of recombinant MD-2-His6. FIGS. 1A and 1B depict SDS-PAGE immunoblots of control culture medium (FIG. 1A, lane 1) or medium from HiFive cells infected with recombinant baculovirus encoding wt (FIG. 1A, lane 2; FIG. 1B, lanes 1–3) or C95Y MD-2 (FIG. 1B, lane 4). MD-2 was detected using anti-(His)4 antibody. All samples represent 1 μl of culture medium except B, lanes 2 and 3, which represent 0.3 and 0.1 μl and A, lane 3, which represents molecular weight markers. In FIG. 1C, HEK/TLR4 cells were incubated in HEPES-buffered HBSS+/0.1% albumin with [^14C]-LOSagg (3 ng/ml)+/−LBP (30 ng/ml) and/or (60 μl) culture medium containing wt MD-2 (MD-2) (open bars); LOSagg+LBP and sCD14 (250 ng/ml)+/−wt (closed bars) or C95Y “MD-2” (striped bars), or [^14C]-LOS-sCD14 (2 ng LOS/ml)+/−wt or C95Y “MD-2” (closed bars). After overnight incubation, extracellular IL-8 was assayed by ELISA. In FIG. 1D, HEK/TLR4 cells were incubated with increasing amounts of wt (▪) or C95Y (◯) MD-2+[^14C]-LOS-sCD14 (2 ng/ml) and cell activation measured. Results shown are from one experiment (duplicate samples) representative of four independent experiments.
In FIG. 2, a bioactive complex (Mr˜25,000) containing MD-2 and [^14C]-LOS is formed by incubation of [^14C]-LOS-sCD14 with wt, but not C95Y, MD-2. In FIG. 2A, dialyzed control insect cell medium (◯) or medium containing wt (♦) or C95Y ( ? ) MD-2 was incubated for 30 min, 37° C. with (1:1 vol/vol) [^14C]-LOS-sCD14 in HBSS+, 10 mM HEPES and chromatographed on Sephacryl S100. Column fractions were analyzed for [^14C]-LOS. Identical results were obtained in analytical (5 ng [^14C]-LOS/ml+200 μl culture medium) or more preparative runs (reagents concentrated 20×). In FIG. 2B, peak fractions (Mr˜25,000) from treatment of [^14C]-LOS-sCD14 with wt MD-2 (FIG. 2A) were re-chromatographed on S100 in HBSS+, 10 mM HEPES without HSA; recovery of [^14C]-LOS was >80%. In FIG. 2C, HEK (□) or HEK/TLR4 (▪) were incubated overnight with the indicated amounts of LOS added as purified Mr˜25,000 (LOS-MD-2) complex. Cell activation was measured by IL-8 accumulation. Results shown correspond to one experiment, in duplicate, representative of three similar experiments. FIGS. 2D and 2E depict adsorption and elution of bioactive Mr˜25,000 complex to HisBind resin. Peak fractions of the purified complex (FIG. 2B; 10 ng [^14C]-LOS) were dialyzed against PBS and incubated with HisBind resin (0.125 ml) for 1 hr at 25° C. and processed as described in Methods. Non-adsorbed (Flow-thru) and adsorbed material eluted with 200 mM imidazole were precipitated with trichloroacetic acid to concentrate sample for SDS-PAGE/immunoblot analysis. […]
as §1, with “activation. […]” for “activation.”

Molecule: CCCCCCCCCCCCCC(=O)O[C@@H]1[C@@H](C)[C@@]2(O)[C@@H](C=C(CO)C[C@]3(O)C(=O)C(C)=C[C@@H]23)[C@@H]2C(C)(C)[C@]12OC(C)=O [phorbol myristate acetate, reference compound]
- steady state MD-2 mRNA levels (human airway epithelia [1]): induced

Molecule: IL-1β: human recombinant IL-1β, positive control [reference compound]
- increase in HBD-2 expression (human airway epithelia [2]): > 10,000 fold

B1: P6: outer membrane protein P6 from non-typeable Haemophilus influenzae (protein, UniProt P10324 20-153, looked up)
Peptidoglycan-associated …: CSSSNNDAAGNGAAQTFGGYSVADLQQRYNTVYFGFDKYDITGEYVQILDAHAAYLNATPAAKVLVEGNTDERGTPEYNIALGQRRADAVKGYLAGKGVDAGKLGTVSYGEEKPAVLGHDEAAYSKNRRAVLAY
- steady state MD-2 mRNA levels (human airway epithelia [1]): marked increases

B2: C95Y MD-2 (protein)
chain: QKQYWVCNSSDASISYTYCDKMQYPISINVNPCIELKRSKGLLHIFYIPRRDLKQLYFNLYITVNTMNLPKRKEVIYRGSDDDYSFCRALKGETVNTTISFSFKGIKFSKGKYKCVVEAISGSPEEMLFCLEFVILHQPNSNHHHHHH
- reaction with [^14C]-LOS-sCD14 to generate new Mr˜25,000 [^14C]-LOS-containing complex (MD-2): no change
- activation of HEK/TLR4 cells by LOS-sCD14 (or LOSagg+LBP+sCD14) on addition of medium containing MD-2 (TLR4; IL-8 release, LOS-sCD14 2 ng LOS/ml): not seen
- inhibition of activation of HEK/TLR4 by [^14C]-LOS-MD-2 by added MD-2 (TLR4; [^14C]-LOS-MD-2 0.3 ng/ml, increasing amounts of conditioned medium): intermediate inhibitory effect
